Measured values published in publication PMC5290273 (Nature Communications, 2017).

B1: His6-tagged wild-type AFF4^ELLBow (AFF4 301–351) [human] / Sumo-ELL2^Occ, wild type [human] (parent complex)
chain 1: PSQPLDASASGDVSCVDEILKEMTHSWPPPLTAIHTPCKTEPSKFPFPTKE
chain 2: EPSAIELPDYLIKYIAIVSYEQRQNYKDDFNAEYDEYRALHARMETVARRFIKLDAQRKRLSPGSKEYQNVHEEVLQEYQKIKQSSPNYHEEKYRCEYLHNKLAHIKRLIGEFDQQQAESWS
B2: Sumo-ELL2^Occ, wild type [human] / fluorescently labelled AFF1^ELLBow peptide 358–390 [modified: C-FAM-GABA- at the N-terminus (FAM: 5-carboxyfluoroscein; GABA: γ-amino-butyric acid spacer); C-terminal amide; C-FAM-GABA- at the N-terminus … (parent complex)
chain 1: B1 chain 2
chain 2: EILKEMTHSWPPPLTAIHTPSTAEPSKFPFPTK

Variants of: B1
Test: fluorescence polarisation competition; residual anisotropy at the highest unlabelled AFF4 concentration, about 30 µM read from the x axis; higher residual anisotropy = weaker competition; read off a plot

response | Variant
~46 mP | chain 1 PSQPLDASASGDVSCVDEILKEMTHSDPPPDTADHTPCKTEPSKFPFPTKE [chain 1 W27D, chain 1 L31D, chain 1 I34D]
~17 mP | chain 1 PSQPLDASASGDVSCVDEILKEMTHSWPPPDTADHTPCKTEPSKFPFPTKE [chain 1 L31D, chain 1 I34D]
~63 mP | chain 1 PSQPLDASASGDVSCVDEILKEDTHSWPPPDTADHTPCKTEPSKFPFPTKE [chain 1 M23D, chain 1 L31D, chain 1 I34D]

Variants of: B1
Test: as above
Remark: another data set of the same source

response | Variant
~7 mP | chain 1 PSQPLDASASGDVSCVPPILKEMTHSWPPPLTAIHTPCKTEPSKFPFPTKE [chain 1 D17P, chain 1 E18P]

Variants of: B2
Test: fluorescence polarisation, direct titration; signal at the highest Sumo-ELL2 concentration, about 30 µM read from the x axis; read off a plot

response | Variant
~7 mP | chain 1 EPSAIELPDYLIKYIAIVSYEQRQNYKDDFNAEYDEYRALEARMETVARRFIKLDAQRKRLSPGSKEYQNVHEEVLQEYQKIKQSSPNYEEEKYRCEYLHAKLAHITRLIGEFDQQQAESWS [chain 1 H41E, chain 1 H90E, chain 1 N101A, chain 1 K107T]
